Earlier results on 1 substance are cited in article PMC3633488.

The data set deals with FGF-2 (Homo sapiens) (UniProt P09038).

In general, Kd refers to the free concentration of one partner at which half of the binding sites on the other are occupied at equilibrium, for simple one-to-one binding. For the substance perlecan (from UniProt P98160), the Kd was 70 nM.
